Source: US20110059888A1
[ ]: non-standard residue; d: D form. Arg(Me) = CNC(=N)NCCC[C@H](N)C(=O)O; Dap(CONH2) = NC(=O)NC[C@H](N)C(=O)O; Ala(cPr) = N[C@@H](CC1CC1)C(=O)O; Hyp = O=C(O)[C@@H]1C[C@@H](O)CN1; Cha = N[C@@H](CC1CCCCC1)C(=O)O; Cba = N[C@@H](CC1CCC1)C(=O)O; Dap = NC[C@H](N)C(=O)O

B1: des(1)-Ac-[D-Tyr2,Glu3,Thr5,Cha6,Ala(cPr)8,Trp10]MS10 (peptide)
peptide: Ac-[dY]ENT[Cha]G[Ala(cPr)]RW-NH2
SMILES: CC(=O)N[C@H](Cc1ccc(O)cc1)C(=O)N[C@@H](CCC(=O)O)C(=O)N[C@@H](CC(N)=O)C(=O)N[C@H](C(=O)N[C@@H](CC1CCCCC1)C(=O)NCC(=O)N[C@@H](CC1CC1)C(=O)N[C@@H](CCCNC(=N)N)C(=O)N[C@@H](Cc1c[nH]c2ccccc12)C(N)=O)[C@@H](C)O
B2: des(1)-Ac-[D-Tyr2,Hyp3,Alb4,Ala5,Cha6,Ala(cPr)8,Arg(Me)9,Trp10]MS10 (peptide)
peptide: Ac-[dY][Hyp][Dap(CONH2)]A[Cha]G[Ala(cPr)][Arg(Me)]W-NH2
SMILES: CNC(=N)NCCC[C@H](NC(=O)[C@H](CC1CC1)NC(=O)CNC(=O)[C@H](CC1CCCCC1)NC(=O)[C@H](C)NC(=O)[C@H](CNC(N)=O)NC(=O)[C@@H]1C[C@@H](O)CN1C(=O)[C@@H](Cc1ccc(O)cc1)NC(C)=O)C(=O)N[C@@H](Cc1c[nH]c2ccccc12)C(N)=O
B3: des(1)-Ac-[D-Tyr2,Hyp3,Alb4,Dap5,Cha6,Ala(cPr)8,Arg(Me)9,Trp10]MS10 (peptide)
peptide: Ac-[dY][Hyp][Dap(CONH2)][Dap][Cha]G[Ala(cPr)][Arg(Me)]W-NH2
SMILES: CNC(=N)NCCC[C@H](NC(=O)[C@H](CC1CC1)NC(=O)CNC(=O)[C@H](CC1CCCCC1)NC(=O)[C@H](CN)NC(=O)[C@H](CNC(N)=O)NC(=O)[C@@H]1C[C@@H](O)CN1C(=O)[C@@H](Cc1ccc(O)cc1)NC(C)=O)C(=O)N[C@@H](Cc1c[nH]c2ccccc12)C(N)=O
B4: des(1)-Ac-[D-Tyr2,Hyp3,Thr5,Cha6,Ala(cPr)8,Trp10]MS10 (peptide)
peptide: Ac-[dY][Hyp]NT[Cha]G[Ala(cPr)]RW-NH2
SMILES: CC(=O)N[C@H](Cc1ccc(O)cc1)C(=O)N1C[C@H](O)C[C@H]1C(=O)N[C@@H](CC(N)=O)C(=O)N[C@H](C(=O)N[C@@H](CC1CCCCC1)C(=O)NCC(=O)N[C@@H](CC1CC1)C(=O)N[C@@H](CCCNC(=N)N)C(=O)N[C@@H](Cc1c[nH]c2ccccc12)C(N)=O)[C@@H](C)O
B5: des(1)-Ac-[D-Tyr2,Hyp3,Alb4,Ser5,Cha6,Ala(cPr)8,Arg(Me)9,Trp10]MS10 (peptide)
peptide: Ac-[dY][Hyp][Dap(CONH2)]S[Cha]G[Ala(cPr)][Arg(Me)]W-NH2
SMILES: CNC(=N)NCCC[C@H](NC(=O)[C@H](CC1CC1)NC(=O)CNC(=O)[C@H](CC1CCCCC1)NC(=O)[C@H](CO)NC(=O)[C@H](CNC(N)=O)NC(=O)[C@@H]1C[C@@H](O)CN1C(=O)[C@@H](Cc1ccc(O)cc1)NC(C)=O)C(=O)N[C@@H](Cc1c[nH]c2ccccc12)C(N)=O
B6: des(1)-Ac-[D-Tyr2,Hyp3,Alb4,Gly5,Cha6,Ala(cPr)8,Arg(Me)9,Trp10]MS10 (peptide)
peptide: Ac-[dY][Hyp][Dap(CONH2)]G[Cha]G[Ala(cPr)][Arg(Me)]W-NH2
SMILES: CNC(=N)NCCC[C@H](NC(=O)[C@H](CC1CC1)NC(=O)CNC(=O)[C@H](CC1CCCCC1)NC(=O)CNC(=O)[C@H](CNC(N)=O)NC(=O)[C@@H]1C[C@@H](O)CN1C(=O)[C@@H](Cc1ccc(O)cc1)NC(C)=O)C(=O)N[C@@H](Cc1c[nH]c2ccccc12)C(N)=O
B7: des(1)-Ac-[D-Tyr2,Hyp3,Alb4,Thr5,Cha6,Ala(cPr)8,Arg(Me)9,Trp10]MS10 (peptide)
peptide: Ac-[dY][Hyp][Dap(CONH2)]T[Cha]G[Ala(cPr)][Arg(Me)]W-NH2
SMILES: CNC(=N)NCCC[C@H](NC(=O)[C@H](CC1CC1)NC(=O)CNC(=O)[C@H](CC1CCCCC1)NC(=O)[C@@H](NC(=O)[C@H](CNC(N)=O)NC(=O)[C@@H]1C[C@@H](O)CN1C(=O)[C@@H](Cc1ccc(O)cc1)NC(C)=O)[C@@H](C)O)C(=O)N[C@@H](Cc1c[nH]c2ccccc12)C(N)=O

Molecular target: human OT7T175 (metastin receptor) (human) (UniProt Q969F8)
Sequence of UniProt Q969F8 (Q969F8 whole entry L364H): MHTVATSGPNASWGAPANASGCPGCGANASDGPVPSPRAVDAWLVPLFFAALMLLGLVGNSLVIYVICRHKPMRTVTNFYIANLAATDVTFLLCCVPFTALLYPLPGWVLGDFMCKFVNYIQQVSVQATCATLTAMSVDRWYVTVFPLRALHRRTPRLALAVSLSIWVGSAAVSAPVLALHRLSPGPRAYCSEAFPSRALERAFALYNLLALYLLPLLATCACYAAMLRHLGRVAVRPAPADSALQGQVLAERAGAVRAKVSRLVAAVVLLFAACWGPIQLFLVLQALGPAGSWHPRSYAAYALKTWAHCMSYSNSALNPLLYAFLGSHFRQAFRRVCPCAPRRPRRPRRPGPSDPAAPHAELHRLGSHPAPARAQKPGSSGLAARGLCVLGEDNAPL
Assay: cell-based or functional assay

Q: Which Specific Activity (EC50 of test compound based on EC50 of Metastin (45-54); intracellular calcium, FLIPR) (ratio to EC50 of Metastin (45-54)) does the source give for B1 here?
A: 0.4

Q: How did the Specific Activity (EC50 of test compound based on EC50 of Metastin (45-54); intracellular calcium, FLIPR) (ratio to EC50 of Metastin (45-54)) turn out when B2 was run?
A: 0.5

Q: With Ac-[dY][Hyp][Dap(CONH2)]T[Cha]GL[Arg(Me)]W-NH2 (also: Gly7-Leu8 amide bond replaced by -CH2CH2-) [des(1)-Ac-[D-Tyr2,Hyp3,Alb4,Thr5,Cha6,Gly7Ψ(CH2CH2)Leu8,Arg(Me)9,Trp10]MS10] as the binder, how does the Specific Activity (EC50 of test compound based on EC50 of Metastin (45-54); intracellular calcium, FLIPR) (ratio to EC50 of Metastin (45-54)) read?
A: 1.1

Q: With Ac-[dY][Hyp]NT[Cha]G[Cba][Arg(Me)]W-NH2 [des(1)-Ac-[D-Tyr2,Hyp3,Thr5,Cha6,Ala(cBu)8,Arg(Me)9,Trp10]MS10] as the binder, how does the Specific Activity (EC50 of test compound based on EC50 of Metastin (45-54); intracellular calcium, FLIPR) (ratio to EC50 of Metastin (45-54)) read?
A: 0.5

Q: With Ac-[dY][Hyp]NT[Cha]GLRW-NH2 (also: Gly7Ψ(CH2CH2)Leu8: amide between Gly and Leu replaced by -CH2CH2-) [des(1)-Ac-[D-Tyr2,Hyp3,Thr5,Cha6,Gly7Ψ(CH2CH2)Leu8,Trp10]MS10] as the binder, how does the Specific Activity (EC50 of test compound based on EC50 of Metastin (45-54); intracellular calcium, FLIPR) (ratio to EC50 of Metastin (45-54)) read?
A: 1.1

Q: Which Specific Activity (EC50 of test compound based on EC50 of Metastin (45-54); intracellular calcium, FLIPR) (ratio to EC50 of Metastin (45-54)) does the source give for Ac-[dY][Hyp][Dap(CONH2)]T[Cha]GLRW-NH2 (also: Gly7-Leu8 amide bond replaced by -CH2CH2-) [des(1)-Ac-[D-Tyr2,Hyp3,Alb4,Thr5,Cha6,Gly7Ψ(CH2CH2)Leu8,Trp10]MS10] here?
A: 1.3

Q: With B3 as the binder, how does the Specific Activity (EC50 of test compound based on EC50 of Metastin (45-54); intracellular calcium, FLIPR) (ratio to EC50 of Metastin (45-54)) read?
A: 0.7

Q: B4 was tested. Which Specific Activity (EC50 of test compound based on EC50 of Metastin (45-54); intracellular calcium, FLIPR) (ratio to EC50 of Metastin (45-54)) did it give?
A: 0.5

Q: B5 was tested. Which Specific Activity (EC50 of test compound based on EC50 of Metastin (45-54); intracellular calcium, FLIPR) (ratio to EC50 of Metastin (45-54)) did it give?
A: 0.5

Q: Which Specific Activity (EC50 of test compound based on EC50 of Metastin (45-54); intracellular calcium, FLIPR) (ratio to EC50 of Metastin (45-54)) does the source give for Ac-[dY][Hyp]NT[Cba]G[Ala(cPr)][Arg(Me)]W-NH2 [des(1)-Ac-[D-Tyr2,Hyp3,Thr5,Ala(cBu)6,Ala(cPr)8,Arg(Me)9,Trp10]MS10] here?
A: 0.7

Q: How did the Specific Activity (EC50 of test compound based on EC50 of Metastin (45-54); intracellular calcium, FLIPR) (ratio to EC50 of Metastin (45-54)) turn out when Ac-[dY][Hyp]NTFGL[Arg(Me)]W-NH2 (also: Phe5-Gly6 amide bond replaced by CH2S) [des(1)-Ac-[D-Tyr2,Hyp3,Thr5,Phe6Ψ(CH2S)Gly7,Arg(Me)9,Trp10]MS10] was run?
A: 0.7

Q: For Ac-[dY][Hyp]NTF[Dap]L[Arg(Me)]W-NH2 [des(1)-Ac-[D-Tyr2,Hyp3,Thr5,Dap7,Arg(Me)9,Trp10]MS10], which Specific Activity (EC50 of test compound based on EC50 of Metastin (45-54); intracellular calcium, FLIPR) (ratio to EC50 of Metastin (45-54)) is on record?
A: 1.3

Q: With B6 as the binder, how does the Specific Activity (EC50 of test compound based on EC50 of Metastin (45-54); intracellular calcium, FLIPR) (ratio to EC50 of Metastin (45-54)) read?
A: 0.7

Q: How did the Specific Activity (EC50 of test compound based on EC50 of Metastin (45-54); intracellular calcium, FLIPR) (ratio to EC50 of Metastin (45-54)) turn out when B7 was run?
A: 0.5
